Legend:
[1] = biological target: GST fusion of CHD4 PHD1-2 (aa 364-506) (human) (UniProt Q14839); test: pull-down; GST-PHD1 or GST-PHD1-2 pre-bound to glutathione magnetic agarose beads; 100 ul of 50 nM nucleosome, 4°C overnight; 25 mM HEPES pH 7.4, 150 mM NaCl, 0.5 mM TCEP; bound nucleosome quantified by qPCR of the 601 DNA, normalised to input
CHD4 PHD1-2 (human) = test: pull-down (GST), qPCR; conditions: Pull-down: 25 mM HEPES pH 7.4, 150 mM NaCl, 0.5 mM TCEP, 4 C overnight, 50 nM nucleosome; NMR at 0 and 100 mM NaCl (buffer not in material)

Chain of UniProt Q14839 (Q14839 364-506): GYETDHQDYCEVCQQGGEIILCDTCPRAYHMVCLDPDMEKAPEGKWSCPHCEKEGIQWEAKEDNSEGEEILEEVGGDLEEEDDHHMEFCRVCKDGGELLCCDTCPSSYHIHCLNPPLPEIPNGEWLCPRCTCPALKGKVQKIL

| Substance | fold increase of pull-down over WT nucleosome [1] [fold] | binding signal (fold vs WT nucleosome) (CHD4 PHD1-2 (human)) |
| --- | --- | --- |
| ([H3.3G33R]) nucleosome core particle (from UniProt P84243 1-136; P62805 1-103; P0C0S8 1-130; P62807 1-126) (complex) | > 2 |  |
| H3.3 G33R nucleosome, 601 DNA |  | > 2 |

From publication PMC12802913
